Target: T1, receptor-binding domain of the SARS-CoV-2 spike protein fused to the maltose-binding protein (SARS-CoV-2, wild-type (Wuhan-Hu-1 …, UniProt P0DTC2))
T1 construct: also called MBP-RBD; RBD-MBP
Assay: BLI
Settings: both partners purified

B1: VHH72 nanobody (VHH)
VHH: QVQLQESGGGLVQAGGSLRLSCAASGRTFSEYAMGWFRQAPGKEREFVATISWSGGSTYYTDSVKGRFTISRDNAKNTVYLQMNSLKPDDTAVYYCAAAGLGTVVSEWDYDYDYWGQGTQVTVSS
notes: not shown: ecotin, N-terminal, cleaved; His-tag, N-terminal, cleaved
- binding result: binds
